One series deals with CYP1A2. The series can be described thus: Induction of drug-metabolizing enzyme in hepatocytes (2D differentiated cells) (Example 6). Format: cell-based, human. As to conditions: 50 μM for 24 hours; added on third, sixth or ninth day of culture; control DMSO. On the procedure: (§1) In this Example, the hepatocytes (2D differentiated cells) of the present invention were evaluated for the induction of a drug-metabolizing enzyme on the third day, sixth day, and ninth day of their culture (FIG. 6A). […] After that, the ΔCt value ((Ct value of GAPDH)-(Ct value of target gene)) of each CYP gene was measured for each cell. As a control, dimethylsulfoxide (DMSO) serving as a solvent for each metabolizing enzyme activator was added thereto.

Series [1] relates to hepatic organoid cells. The series can be described thus: Screening of monolayer culture conditions, sixth day of culture, quantitative RT-PCR (Example 3). Format: cell-based, human. As to conditions: versus third day of culture. As for the experimental part: Culture conditions up to the sixth day of culture when hepatic organoid cells were subjected to monolayer culture with a HCM™ medium having added thereto each of various factors were investigated in the same manner as in each of Examples 1 and 2.
The hepatic organoid cells were seeded at 3.0×10^5 cells/well on a collagen-coated 48-well plate, and were differentiated with the HCM™ medium having added thereto the EMTi and BMP7 (50 ng/mL) described in Example 2 until the third day of the culture. […] The respective gene expression levels of ALB and CYP3A4 serving as liver cell markers after 6 days of two-dimensional culture were analyzed by a quantitative RT-PCR method. As a comparative example, the gene expression levels of PHHs cultured only with the HCM™ medium and iPS-HLCs were also identified in the same manner as in Example 1.
The respective gene expression levels of ALB and CYP3A4 were measured by a quantitative RT-PCR method for the respective cells after their culture. A gene expression level when the hepatic organoid cells were cultured only with the HCM™ medium having added thereto the above-mentioned EMTi was defined as a vehicle. Comparison was performed while the gene expression level of ALB of the cells cultured by using the EMTi and BMP7 (50 ng/mL) in combination on the third day of the culture was defined as 1.0.

Series [2] deals with hepatic organoid cells. The series can be described thus: Screening of monolayer culture conditions, ninth day of culture, quantitative RT-PCR (Example 4). Type of series: cell-based, human. The settings on record: EMTi and FGF19 (100 ng/mL). As for the experimental part:
The medium was replaced with a new one on the third day of the culture, and the cells were differentiated with the HCM™ medium having added thereto the EMTi and FGF19 (100 ng/mL) until the sixth day of the culture.
The respective gene expression levels of ALB and CYP3A4 serving as liver cell markers after 9 days of two-dimensional culture were analyzed by a quantitative RT-PCR method.
The respective gene expression levels of ALB and CYP3A4 were measured by a quantitative RT-PCR method for the respective cells after their culture. A gene expression level when the hepatic organoid cells were cultured only with the HCM™ medium having added thereto the above-mentioned EMTi was defined as a vehicle. Comparison was performed while the gene expression level of ALB of the cells cultured with the HCM™ medium having added thereto the EMTi and FGF19 (100 ng/mL) on the sixth day of the culture was defined as 1.0.

The next series relates to CYP2B6. Nature of the series: Induction of drug-metabolizing enzyme in hepatocytes (2D differentiated cells) (Example 6). The settings on record: 1 mM for 24 hours; added on third, sixth or ninth day of culture; control DMSO. As for the experimental part: as §1
Series [3] deals with hepatic organoid cells. Nature of the series: Screening of monolayer culture conditions, third day of culture, EMTi and humoral factors, quantitative RT-PCR (Example 2). As to conditions: combined use of EMTi and BMP7 (50 ng/mL); 72 hours; vehicle (EMTi only)=1.0. Type of series: cell-based, human.

With `COc1ccc2[nH]c([S+]([O-])Cc3ncc(C)c(OC)c3C)nc2c1` (stereo not shown) [omeprazole], the “gene expression level of CYP1A2 (ΔCt value)” value with CYP1A2 was “further enhanced”. Consider fibroblast growth factor 19 [FGF19], for which the “gene expression level of CYP3A4 increased by a factor of” value was “about 95” in the series with hepatic organoid cells [1] (EMTi and FGF19 (100 ng/ml)); “about 40” in the series on hepatic organoid cells [2] (versus sixth day of culture). In the series on hepatic organoid cells [2] (versus sixth day of culture (=1.0)), the “gene expression level of ALB” value is “increasing tendency”. On to `CCC1(c2ccccc2)C(=O)NC(=O)NC1=O` [phenobarbital], for which, in the series on CYP2B6, the “gene expression level of CYP2B6 (ΔCt value)” value was “further enhanced”.

B1: bone morphogenetic protein 7 (protein, UniProt P18075 293-431, looked up)
Bone morphogenetic protein 7: STGSKQRSQNRSKTPKNQEALRMANVAENSSSDQRQACKKHELYVSFRDLGWQDWIIAPEGYAAYYCEGECAFPLNSYMNATNHAIVQTLVHFINPETVPKPCCAPTQLNAISVLYFDDSSNVILKKYRNMVVRACGCH
notes: recombinant protein added as a humoral factor
For B1, the “gene expression level of CYP3A4 increased by a factor of” value was 50 in the series on hepatic organoid cells [3]; “about 50” with hepatic organoid cells [1] (EMTi and BMP7 (50 ng/ml)).

The values above are taken from patent publication US20250164464A1, “LIVER ORGANOID-DERIVED CULTURED HEPATOCYTES” (OSAKA UNIVERSITY, priority 2022, published 2025).
